Data as given in paper PMC10042821, “Cryo-EM structure of human eIF5A-DHS complex reveals the molecular basis of hypusination-associated neurodegenerative disorders” (Nature Communications, 2023).
Substitutions are numbered along the chain they refer to.

Columns and labels:
Test in all cases: MST; His-tagged DHS variants labelled with RED-tris-NTA 2nd Generation, 8.32 nM; eIF5A titrated, sixteen dilutions 0.00175–57.5 μM; 50 mM Tris, 200 mM NaCl, 5 mM β-ME pH 8; Monolith NT.115, 40% excitation power, 60% MST power; no NAD or SPD
Details in all cases: both partners purified
[1] = molecular target: T1, deoxyhypusine synthase, wild type, His-tagged (human, UniProt P49366 1-369, RED-tris-NTA 2nd Generation dye on the His tag)
T1 construct: human deoxyhypusine synthase, Uniprot P49366, residues 1-369, in pET24d with N-terminal 6xHis-tag and TEV site; also called DHS; DHS wt; source: E. coli, purified; not shown: 6xHis, N-terminal, kept
T1 sequence (looked up): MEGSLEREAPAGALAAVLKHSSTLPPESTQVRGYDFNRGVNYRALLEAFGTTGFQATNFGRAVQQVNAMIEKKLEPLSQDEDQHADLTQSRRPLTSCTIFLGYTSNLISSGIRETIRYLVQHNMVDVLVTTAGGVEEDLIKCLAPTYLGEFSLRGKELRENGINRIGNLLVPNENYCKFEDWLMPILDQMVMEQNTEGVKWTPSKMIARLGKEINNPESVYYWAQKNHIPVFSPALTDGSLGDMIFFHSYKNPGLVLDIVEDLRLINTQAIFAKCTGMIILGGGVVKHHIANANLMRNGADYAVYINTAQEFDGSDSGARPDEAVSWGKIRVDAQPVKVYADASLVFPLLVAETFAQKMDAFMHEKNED

[2] = molecular target: T2, deoxyhypusine synthase F272A, His-tagged (human, UniProt P49366 1-369, F272A, RED-tris-NTA 2nd Generation dye on the His tag)
T2 construct: human deoxyhypusine synthase, Uniprot P49366, residues 1-369, site-directed mutant of the pET24d full-length construct; also called DHS F272A; source: E. coli, purified; not shown: 6xHis, N-terminal, kept
T2 sequence (looked up): T1 sequence (looked up) with F272A

[3] = molecular target: T3, deoxyhypusine synthase S240A, His-tagged (human, UniProt P49366 1-369, S240A, RED-tris-NTA 2nd Generation dye on the His tag)
T3 construct: human deoxyhypusine synthase, Uniprot P49366, residues 1-369, site-directed mutant of the pET24d full-length construct; also called DHS S240A; source: E. coli, purified; not shown: 6xHis, N-terminal, kept
T3 sequence (looked up): T1 sequence (looked up) with S240A

[4] = molecular target: T4, deoxyhypusine synthase L295A, His-tagged (human, UniProt P49366 1-369, L295A, RED-tris-NTA 2nd Generation dye on the His tag)
T4 construct: human deoxyhypusine synthase, Uniprot P49366, residues 1-369, site-directed mutant of the pET24d full-length construct; also called DHS L295A; source: E. coli, purified; not shown: 6xHis, N-terminal, kept
T4 sequence (looked up): T1 sequence (looked up) with L295A

B1: eukaryotic translation factor 5A (eIF5A-1), residues 15-151 (domain or fragment)
chain: not shown
notes: human eIF5A1, residues 15-151, from pET28-MHL (Addgene); The purification protocol removes the tag with TEV; source: E. coli, purified (HisTrap, TEV cleavage, reverse HisTrap, SEC); not shown: His tag, N-terminal, cleaved
Kd [1]: 40 ± 9 nM | Kd [2]: 504 ± 154 nM | Kd [3]: 2660 ± 434 nM | Kd [4]: 393 ± 107 nM
